{
  "source": "patent US12479928B2",
  "about": "“Anti-cancer peptide” (Minerva Biotechnologies Corporation, priority 2014, dated 2025)",
  "molecules": {"B1": {"name": "NME7-AB: recombinant human NME7 devoid of the DM10 domain, NDPK A and B domains, about 33 kDa monomer (protein)", "chain": "MEKTLALIKPDAISKAGEIIEIINKAGFTITKLKMMMLSRKEALDFHVDHQSRPFFNELIQFITTGPIIAMEILRDDAICEWKRLLGPANSGVARTDASESIRALFGTDGIRNAAHGPDSFASAAREMELFFPSSGGCGPANTAKFTNCTCCIVKPHAVSEGLLGKILMAIRDAGFEISAMQMFNMDRVNVEEFYEVYKGVVTEYHDMVTEMYSGPCVAMEIQQNNATKTFREFCGPADPEIARHLRPGTLRAIFGKTKIQNAVHCTDLPEDGLLEVQYFFKILDN"}},
  "key": {"[1]": {"target": "T1, PSMGFR peptide (MUC1* extracellular domain) (Homo sapiens, UniProt P15941)", "T1 construct": "The PSMGFR peptide bearing a C-terminal Cysteine (PSMGFR-Cys) was covalently coupled to BSA; made in house; host or cells: E. coli (NME7-AB)", "T1 sequence (P15941 1110-1154 limits assumed) 1": "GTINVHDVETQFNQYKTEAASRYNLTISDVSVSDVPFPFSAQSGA", "T1 sequence (Q9Y5B8 92-376 partner limits assumed)": "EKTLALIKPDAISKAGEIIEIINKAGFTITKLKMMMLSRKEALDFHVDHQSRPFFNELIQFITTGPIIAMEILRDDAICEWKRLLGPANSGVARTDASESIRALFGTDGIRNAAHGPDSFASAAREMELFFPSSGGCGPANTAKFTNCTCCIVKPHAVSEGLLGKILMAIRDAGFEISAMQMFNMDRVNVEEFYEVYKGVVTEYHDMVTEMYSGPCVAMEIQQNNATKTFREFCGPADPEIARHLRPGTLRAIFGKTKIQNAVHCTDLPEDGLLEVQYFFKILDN", "T1 sequence (P15941 1110-1154 limits assumed) 3": "T1 sequence (P15941 1110-1154 limits assumed) 1", "assay": "Sandwich ELISA: NME7-AB dimerizes MUC1* extra cellular domain peptide", "type": "binding", "method": "The PSMGFR peptide bearing a C-terminal Cysteine (PSMGFR-Cys) was covalently coupled to BSA using Imject Maleimide activated BSA kit (Thermo Fisher). PSMGFR-Cys coupled BSA was diluted to 10 ug/mL in 0.1M carbonate/bicarbonate buffer pH 9.6 and 50 uL was added to each well of a 96 well plate. After overnight incubation at 4° C., the plate was washed twice with PBS-T and a 3% BSA solution was added to block remaining binding site on the well. After 1 h at RT the plate was washed twice with PBS-T and NME7, diluted in PBS-T+1% BSA, was added at different concentrations. After 1 h at RT the plate was washed 3× with PBS-T and anti-NM23-H7 (B-9, Santa Cruz Biotechnology), diluted in PBS-T+1% BSA, was added at 1/500 dilution. […] After 1 h at RT the plate was washed 3× with PBS-T and binding of NME7 was measured at 415 nm using ABTS solution (Pierce). […]\nAfter 1 h at RT the plate was washed 3× with PBS-T and HisTagged PSMGFR peptide (PSMGFR-His) or biotinylated PSMGFR peptide (PSMGFR-biotin), diluted in PBS-T+1% BSA, was added at different concentration. […] After 1 h at RT the plate was washed 3× with PBS-T and binding of PSMGFR peptide to NME7 already bound to another PSMGFR peptide (which could not signal by anti-His antibody or by streptavidin) coupled BSA was measured at 415 nm using a ABTS solution (Pierce)."}, "[2]": {"test_system": "MDA-MB breast cancer cell line", "assay": "RT-PCR of metastatic markers after culture in NME7-AB, MDA-MB", "type": "cell-based, human", "settings": "serum-free media containing NME7-AB", "method": "(§1) FIGS. 37A-37C show graphs of RT-PCR measurements of metastatic markers in cancer cells after being cultured in a serum-free media containing NME7-AB compared to the standard media.\n(§2) Ovarian cancer cells, pancreatic cancer cells and melanoma cells were also cultured in NME7-AB and were transformed to a more metastatic state after as few as 3 days in culture."}, "[3]": {"test_system": "OV-90 ovarian cancer cell line", "assay": "RT-PCR of metastatic markers after culture in NME7-AB, OV-90", "type": "cell-based, human", "settings": "72 or 144 hours", "from_the_text": "as §1"}, "[4]": {"test_system": "DU145 prostate cancer cells", "assay": "RT-PCR of CSC markers after culture in NME7-AB, DU145", "type": "cell-based, human", "method": "FIG. 13 is a graph of RT-PCR measurements of gene expression for a variety of stem and putative cancer stem cell markers for DU145 prostate cancer cells. Cells were cultured either in traditional media or a media containing NME1 dimers (“NM23”) or NME7 (NME7-AB). Rho kinase inhibitor was not used because by passage 2, cells remained adherent.\nas §2"}, "[5]": {"test_system": "Human stem cells (iPS cat #SC101a-1)", "assay": "Human stem cell growth and pluripotency in NME7-AB or NM23-H1 dimers", "type": "cell-based", "settings": "for pluripotent stem cell growth / differentiation: 8 nM in Minimal Stem Cell Media", "method": "For testing recombinant NME7-AB for ability to maintain pluripotency and inhibit differentiation, a soluble variant of NME7, NME7-AB, was generated and purified. Human stem cells (iPS cat #SC101a-1, System Biosciences) were grown per the manufacturer's directions in 4 ng/ml bFGF over a layer of mouse fibroblast feeder cells for four passages. These source stem cells were then plated into 6-well cell culture plates (Vita™, Thermo Fisher) that had been coated with 12.5 ug/well of a monoclonal anti-MUC1* antibody, MN-C3. Cells were plated at a density of 300,000 cells per well. The base media was Minimal Stem Cell Media consisting of: 400 ml DME/F12/GlutaMAX I (Invitrogen #10565-018), 100 ml Knockout Serum Replacement (KO-SR, Invitrogen #10828-028), 5 ml 100×MEM Non-essential Amino Acid Solution (Invitrogen #11140-050) and 0.9 ml (0.1 mM) β-mercaptoethanol (55 mM stock, Invitrogen #21985-023). The base media can be any media. In a preferred embodiment, the base media is free of other growth factors and cytokines. To the base media was added either 8 nM of NME7-AB or 8 nM NM23-H1 refolded and purified as stable dimers. Media was changed every 48 hours and due to accelerated growth, had to be harvested and passaged at Day 3 post-plating.\nCell counts at the first harvest verified that culture in NME7 produced 1.4-times more cells than culture in NM23-H1 dimers."}},
  "data": [
    {"molecule": "B1", "values": [
      {"measurement": "simultaneous binding of PSMGFR peptides", "setting": "[1]", "result": "simultaneously binds to two PSMGFR peptides"},
      {"measurement": "metastatic marker expression after culture in NME7-AB", "setting": "[2]", "result": "increased expression of metastatic markers CDH1 aka E-cadherin and SOX2"},
      {"measurement": "metastatic marker expression after culture in NME7-AB", "setting": "[3]", "result": "increase expression of metastatic markers CXCR4 and NME7-X1"},
      {"measurement": "CSC marker expression after culture in NME7-AB", "setting": "[4]", "result": "dramatic increases in expression of CSC markers"},
      {"measurement": "pluripotent stem cell growth / differentiation", "setting": "[5]", "result": "fully supported human stem cell growth, pluripotency, and resisted differentiation"},
      {"measurement": "pluripotent stem cell growth / differentiation", "setting": "[5]; listed as NME7", "result": "no differentiation even when 100% confluent"},
      {"measurement": "cell number relative to culture in NM23-H1 dimers", "setting": "[5]; 8 nM, cell counts at first harvest", "result": 1.4, "unit": "times"}
    ]}
  ]
}
